According to patent US20210220472A1 (YISSUM RESEARCH DEVELOPMENT COMPANY OF THE HEBREW …, published 2021):

Tests used:
[1] = target: human TIGIT expressed on cells (YTS-TIGIT transfectants, NK cells of healthy donors, CD8+ TILs) (human) (UniProt Q495A1); assay: FACS on 75×10^3 YTS-TIGIT cells, serial dilutions 250 nM to 65 fM
[2] = target: human TIGIT expressed on cells (YTS-TIGIT transfectants, NK cells of healthy donors, CD8+ TILs) (human) (UniProt Q495A1); assay: FACS on YTS-TIGIT cells in the presence of 2.5 pmole PVR-Fc, bound antibody detected with anti-mouse IgG Alexa Fluor 647
[3] = target: human TIGIT expressed on cells (YTS-TIGIT transfectants, NK cells of healthy donors, CD8+ TILs) (human) (UniProt Q495A1); assay: FACS blocking assay on YTS-TIGIT cells: antibody titrated against 2.5 pmole PVR-Fc, bound PVR-Fc detected
[4] = target: T1, human TIGIT from two commercial sources (loaded on Biacore biosensor) (human, UniProt Q495A1 22-141); assay: SPR (Biacore), human TIGIT on the biosensor; one of two commercial sources; the other of two TIGIT sources (source not named)
T1 sequence (looked up): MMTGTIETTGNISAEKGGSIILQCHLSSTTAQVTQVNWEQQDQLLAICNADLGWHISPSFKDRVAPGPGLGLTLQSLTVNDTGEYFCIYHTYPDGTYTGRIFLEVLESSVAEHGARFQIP
Method: (§1) Surface plasmon resonance (SPR) Biosensor Biacore™ T100 (GE Healthcare) was used to determine Koff, Kon and KD between the antibodies and TIGIT.
(§2) Full binding kinetic analyses of the mAbs to human TIGIT from two sources were carried out using Biacore.

[5] = target: T1, human TIGIT from two commercial sources …; assay: SPR (Biacore), human TIGIT on the biosensor; one of two commercial sources; one of two TIGIT sources (source not named)
Method: as §1, §2

[6] = target: T1, human TIGIT from two commercial sources …; assay: SPR (Biacore), human TIGIT on the biosensor; average of two commercial sources; average of the two TIGIT sources
Method: as §1, §2

[7] = target: T2, human TIGIT expressed on cells (YTS-TIGIT transfectants, NK cells of healthy donors, CD8+ TILs) (human, UniProt Q495A1 22-244); assay: FACS titration on YTS-TIGIT cells, fluorescence intensity against antibody concentration
T2 construct: whole, on cells; also called hTIGIT; T-cell immunoglobulin and ITIM domain
T2 sequence (looked up): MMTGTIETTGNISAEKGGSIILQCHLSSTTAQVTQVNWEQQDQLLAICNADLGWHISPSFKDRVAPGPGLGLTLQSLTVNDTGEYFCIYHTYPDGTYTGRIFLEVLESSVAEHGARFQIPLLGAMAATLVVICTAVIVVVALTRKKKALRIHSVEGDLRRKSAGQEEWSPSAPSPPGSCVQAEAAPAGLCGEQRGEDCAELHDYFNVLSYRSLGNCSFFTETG
Text: FIG. 6A. […] Background—staining of mIgG (grey filled histograms). Each panel represents a specific concentration of the antibodies as indicated. Y-axis of each panel is cell counts and X-axis is fluorescence intensity (FL1-H).

commercial anti-TIGIT antibody MBSA43 (eBioscience Cat#12-9500-42)
lowest concentration at which cells were stained [1]: > 1950 fM
MFI of bound antibody at 0.014 pmol [2]: 64
MFI of bound antibody at 0.028 pmol [2]: 88
MFI of bound antibody at 0.056 pmol [2]: 150
MFI of bound antibody at 0.115 pmol [2]: 224
MFI of bound antibody at 0.21 pmol [2]: 302
MFI of bound antibody at 0.425 pmol [2]: 325
MFI of bound antibody at 0.85 pmol [2]: 380
MFI of bound antibody at 27 pmol [2]: 445
MFI of bound PVR-Fc, antibody at 0.014 pmol [3]: 34
MFI of bound PVR-Fc, antibody at 0.028 pmol [3]: 27.1
MFI of bound PVR-Fc, antibody at 0.056 pmol [3]: 22.6
MFI of bound PVR-Fc, antibody at 0.115 pmol [3]: 12.6
MFI of bound PVR-Fc, antibody at 0.21 pmol [3]: 7.8
MFI of bound PVR-Fc, antibody at 0.425 pmol [3]: 4.5

B1: anti human TIGIT monoclonal antibody 258-CS1#4 (antibody, V domains shown)
VH: QVQLLQPGAELVKPGASVKLSCKASGYTFTIYCIHWVKQRPGQGLEWIGEISPSNGRTIYNEKFKNKATLTIDKSSTTAYMQLSSLTSEDSAVYCCAISDGYDGYYFDYWGQGTTLTVSS
VL: DIQMTQSPSSLSASLGERVSLTCRASQEISGYLNWLQQKPDGTIKRLIYAASTLDSGVPKRFSGSRSGSDYSLTISRLESEDFADYYCLQYASYPRTFGGGTKLEIK
notes: Mouse monoclonal antibody from a hybridoma
Kd [4]: 107 nM
Kd [5]: 99.6 nM
Kd [6]: ~100 nM

B2: anti human TIGIT monoclonal antibody VSIG9#1 (antibody, V domains shown)
VH: QVQLQESGAELARPGASVKLSCKASGYTFTSYGISWVKQRTGQGLEWIGEIYPRSGNTYYNEKFKGKATLTADKSSSTAYMELSSLTSEDSAVYFCARKGPYYTKNEDYWGQGTILTVSS
VL: DIQMTQSPASLAASVGETVTITCRASEHIYYSLAWYQQKQGKSPQLLIYNANSLEDGVPSRFSGSGSGTQYSMKINSMQPEDTATYFCKQAYDVPRTFGGGTKLEIKR
notes: Mouse monoclonal antibody from a hybridoma; It was detected with anti-mouse IgG; also called Vsig9.01; anti TIGIT-VSIG9#1
Kd [4]: 0.387 nM
Kd [5]: 0.513 nM
EC50 (read off the curve) [7]: ~0.007 nM
Kd [6]: 0.45 nM
